These results are taken from US20210315238A1.

Read-outs that look alike come from different tables or passages of the source.

For data set [1], the system named is 33-mer peptide.
In data set [2] the test system is 26-mer peptide.
Data set [3] has as its target wheat gliadin (Sigma, Cat. No. G3375) (wheat). The data set can be described thus: cell-based or functional assay.
In data set [4] the target is T1, 33-mer peptide.
T1 chain: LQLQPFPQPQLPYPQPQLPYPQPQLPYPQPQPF

In data set [5] the target is T2, 26-mer peptide.
T2 chain: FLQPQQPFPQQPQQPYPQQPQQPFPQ

As to Brewers Clarex, in data set [1], the Residual 33-mer peptide (mg/mL) after 0.5 ppm protease, 10 min 40 C, HPLC was determined as 0.58 mg/mL; the Residual 33-mer peptide (mg/mL) after 1 ppm protease, 10 min 40 C, HPLC came to 0.39 mg/mL; the Residual 33-mer peptide (mg/mL) after 2 ppm protease, 10 min 40 C, HPLC amounted to 0.18 mg/mL; the Residual immunogenicity of 33-mer peptide (%), competitive ELISA after protease treatment turned out to be 73.7%. Also, in data set [2], the Residual 26-mer peptide (mg/mL) after 0.5 ppm protease, 10 min 40 C, HPLC was 0.65 mg/mL; the Residual 26-mer peptide (mg/mL) after 1 ppm protease, 10 min 40 C, HPLC was found to be 0.46 mg/mL; the Residual 26-mer peptide (mg/mL) after 2 ppm protease, 10 min 40 C, HPLC turned out to be 0.2 mg/mL; the Residual immunogenicity of 26-mer peptide (%), competitive ELISA after protease treatment turned out to be 99.6%.

The molecule Brewers Clarex (enzyme) yielded a Residual Immunogenicity (%) of wheat gliadin, competitive ELISA after protease treatment in data set [3] of 59.7%.

B1: AflPro3 (protein)
chain: LSFLPGIKANNLQLASVLGIDGHTARFNPEKIAETAISRGSGSEVPARRISIPIDHEDPSMGTYQNRYWVSADFYKPGGPVFVLDAGEGNAYSVAQSYLGGSDNFFAEYLKEFNGLGLVWEHRYYGDSLPFPVNTSTPNEHFKYLTNSQALADLPYFAEKFTLNGTDLSPKSSPWIMLGGSYPGMRAAFTRNEYPDTIFASFAMSAPVEAWVNMTIYFEQVYRGMVANGLGGCAKDLKAINDYIDSQLDKKGQAADAIKTLFLGKEGIHNSNGDFTAALGSIYNLFQSYGVDGGEESLSQLCSYLDKEASPNGIARKIGVKELTEKFAAWPPLLYLINQWGSQVGNGDSNCKGQNNSTETVCELGGQFTDPDTISWTWQYCTEWGYLQADNVGPHSLLSKYQSLEYQQSLCYRQFPGAKESGLLPEHPEANETNAETGGWTIRPSNVFWSAGEFDPWRTLTPLSNETFAPKGVQISTNIPKCGVETPENVLFGYVIPRAEHCFDYDLSYKPADKSRKLFSLALKKWLPCWRSEHAPKGVQRKWM
In data set [4], B1 gave a Residual 33-mer peptide (mg/mL) after 0.5 ppm protease, 10 min 40 C, HPLC of 0.09 mg/mL; a Residual 33-mer peptide (mg/mL) after 1 ppm protease, 10 min 40 C, HPLC of 0.01 mg/mL; a Residual 33-mer peptide (mg/mL) after 2 ppm protease, 10 min 40 C, HPLC of 0.01 mg/mL. Also, in data set [5], the Residual 26-mer peptide (mg/mL) after 0.5 ppm protease, 10 min 40 C, HPLC came to 0.38 mg/mL; the Residual 26-mer peptide (mg/mL) after 1 ppm protease, 10 min 40 C, HPLC was found to be 0.17 mg/mL; the Residual 26-mer peptide (mg/mL) after 2 ppm protease, 10 min 40 C, HPLC stood at 0.05 mg/mL.
